Experimental findings from patent publication US20170319711A1 (Pfizer, published 2017) are described below.

As usually defined, the Kd is a measure of binding affinity in units of concentration. As a reminder, the koff is a measure of how fast the partners let go of each other. By kon is commonly meant the second-order rate constant of association.

The target in one assay is T1, mouse 5T4 (mouse, UniProt Q9Z0L0 32-361, limits assumed).
T1 sequence (looked up): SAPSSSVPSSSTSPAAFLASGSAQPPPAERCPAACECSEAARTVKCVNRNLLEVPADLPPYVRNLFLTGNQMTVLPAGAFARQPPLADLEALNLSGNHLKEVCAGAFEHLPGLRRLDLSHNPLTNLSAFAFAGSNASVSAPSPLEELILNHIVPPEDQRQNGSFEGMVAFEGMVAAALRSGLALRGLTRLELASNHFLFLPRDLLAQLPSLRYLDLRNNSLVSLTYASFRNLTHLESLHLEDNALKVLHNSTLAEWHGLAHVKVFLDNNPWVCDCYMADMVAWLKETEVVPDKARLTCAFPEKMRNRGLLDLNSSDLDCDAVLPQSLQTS
Kind of assay: ELISA (Example 7).

Assay [1] concerns the target T2, human 5T4 ectodomain fused to the human IgG1-Fc domain (human, UniProt Q13641 32-355).
T2 construct: also called hu5T4; 5T4-Fc; not shown: Fc constant region from human IgG1
T2 sequence: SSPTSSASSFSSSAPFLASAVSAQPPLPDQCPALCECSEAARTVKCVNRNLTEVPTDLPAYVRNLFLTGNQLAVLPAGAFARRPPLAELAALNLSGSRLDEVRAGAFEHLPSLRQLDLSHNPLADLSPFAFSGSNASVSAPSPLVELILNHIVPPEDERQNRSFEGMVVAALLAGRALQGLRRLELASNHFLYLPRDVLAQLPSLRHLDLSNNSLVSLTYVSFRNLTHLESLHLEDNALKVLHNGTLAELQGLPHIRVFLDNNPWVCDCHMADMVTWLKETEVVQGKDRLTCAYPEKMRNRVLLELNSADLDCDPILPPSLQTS
Kind of assay: SPR (BIAcore), immobilized 5T4-Fc, pH 7.4. The procedure:
(§1) Surface plasmon resonance (SPR) analysis is performed utilizing the BIAcore® to determine the affinity constants for A1-IgG1 and A1-IgG4 binding to either human or cynomolgus 5T4 at pH 6.0 and pH 7.4. BIAcore® technology utilizes changes in the refractive index at the surface layer upon binding of the huA1 antibody variants to the human 5T4 protein immobilized on the surface layer. Binding is detected by SPR of laser light refracting from the surface. Analysis of the signal kinetics on-rate and off-rate allows the discrimination between non-specific and specific interactions. The 5T4 proteins used for this analysis consisted of the human or cynomolgus 5T4 ectodomain fused to the human IgG1-Fc domain and low densities (45.1 and 45.4 RU for human and cynomolgus respectively) are immobilized onto a CM5 chip to accurately measure affinity constants.
(§2) The measurement of specific binding to the 5T4 ectodomain is attained by subtracting binding to a reference surface that had only human IgG1-Fc protein immobilized onto the CM5 chip at the same density to that on the 5T4-Fc surfaces. Next, various concentrations of A1, A1-IgG4, or A3 antibodies in either HBS-EP pH 7.4 or MES-EP pH 6.0 buffer are injected over the surface. The surface is regenerated two times with Glycine pH 1.7+0.05% Surfactant P20 (GE Healthcare, BR-1000-54) between injection cycles.
Background: In SPR one partner is held on a chip, and binding of the other changes the refractive index at the surface.

Assay [2] deals with T3, cynomolgus 5T4 ectodomain fused to the human IgG1-Fc domain (cynomolgus monkey; human, UniProt Q4R8Y9 35-355).
T3 construct: range 1-355; also called cyno5T4; not shown: Fc constant region from human IgG1
T3 sequence (looked up): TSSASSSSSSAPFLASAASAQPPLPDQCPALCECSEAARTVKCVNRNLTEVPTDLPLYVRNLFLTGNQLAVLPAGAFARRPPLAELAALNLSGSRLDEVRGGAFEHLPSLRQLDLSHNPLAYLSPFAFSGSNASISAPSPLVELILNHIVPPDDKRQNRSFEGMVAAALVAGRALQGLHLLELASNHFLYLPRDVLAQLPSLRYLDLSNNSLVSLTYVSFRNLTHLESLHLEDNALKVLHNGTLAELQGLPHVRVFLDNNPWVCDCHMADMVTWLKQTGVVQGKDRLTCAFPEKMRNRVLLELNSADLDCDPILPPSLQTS
Kind of assay: SPR (BIAcore), immobilized 5T4-Fc, pH not printed in this row (7.4 by the order of the table); row shifted one column to the left; pH 7.4 (pH cell missing; inferred from the order of the table). The procedure:
as §1, §2

Assay [3] has as its target T3, cynomolgus 5T4 ectodomain fused to the …. Kind of assay: SPR (BIAcore), immobilized 5T4-Fc, pH not printed in this row (7.4 by the order of the table); row shifted one column to the left; pH 7.4. The procedure: as §1, §2
Assay [4] shares this target. Kind of assay: SPR (BIAcore), immobilized 5T4-Fc, pH 6.0. The procedure:
as §1, §2

Assay [5] deals with T2, human 5T4 ectodomain fused to the human …. Kind of assay: SPR (BIAcore), immobilized 5T4-Fc, pH 6.0. The procedure:
as §1, §2

Assay [6] has as its target T3, cynomolgus 5T4 ectodomain fused to the …. Kind of assay: SPR (BIAcore), low-density 5T4-Fc surface, pH 7.4. The procedure:
as §1, §2

Assay [7] addresses T2, human 5T4 ectodomain fused to the human …. Kind of assay: SPR (BIAcore), low-density 5T4-Fc surface, pH 7.4. The procedure: as §1, §2
Assay [8] addresses T3, cynomolgus 5T4 ectodomain fused to the …. As to the kind of experiment: SPR (BIAcore), immobilized 5T4-Fc, pH 7.4. The procedure: as §1, §2
For assay [9] the target is unchanged. As to the kind of experiment: SPR (BIAcore), immobilized 5T4-Fc, pH 6.0. The procedure:
as §1, §2
This is another data set of the same source.

Assay [10] deals with T2, human 5T4 ectodomain fused to the human …. Kind of assay: SPR (BIAcore), immobilized 5T4-Fc, pH 6.0. The procedure:
as §1, §2
The source holds these as a separate data set.

For assay [11], the target named is T3, cynomolgus 5T4 ectodomain fused to the …. Kind of assay: SPR (BIAcore), immobilized 5T4-Fc, pH 7.4. The procedure:
as §1, §2
This is another data set of the same source.

Assay [12] deals with T2, human 5T4 ectodomain fused to the human …. As to the kind of experiment: SPR (BIAcore), immobilized 5T4-Fc, pH 7.4. The procedure:
as §1, §2
The source holds these as a separate data set.

In assay [13] the target is T3, cynomolgus 5T4 ectodomain fused to the …. Kind of assay: SPR (BIAcore), low-density 5T4-Fc surface, pH 6.0. The procedure: as §1, §2
Assay [14] has as its target T2, human 5T4 ectodomain fused to the human …. As to the kind of experiment: SPR (BIAcore), low-density 5T4-Fc surface, pH 6.0. The procedure: as §1, §2
In assay [15] the target is T4, Human 5T4 antigen on cells (human, UniProt Q13641 32-420).
T4 construct: also called 5T4 oncofetal antigen
T4 sequence: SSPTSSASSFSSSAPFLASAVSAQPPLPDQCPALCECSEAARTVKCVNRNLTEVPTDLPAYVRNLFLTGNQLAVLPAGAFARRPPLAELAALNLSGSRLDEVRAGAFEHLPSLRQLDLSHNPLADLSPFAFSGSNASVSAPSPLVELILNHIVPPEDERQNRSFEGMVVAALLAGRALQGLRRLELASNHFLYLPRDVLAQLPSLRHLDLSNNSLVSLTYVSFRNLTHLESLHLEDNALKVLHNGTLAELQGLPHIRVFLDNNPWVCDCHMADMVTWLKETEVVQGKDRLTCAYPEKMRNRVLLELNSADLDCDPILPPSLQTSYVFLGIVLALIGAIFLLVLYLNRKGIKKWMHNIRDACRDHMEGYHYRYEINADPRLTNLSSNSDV
Kind of assay: flow cytometry, 10 ug/mL, MDAMD361-DYT2 cells. The procedure: (§3) Cells expressing the 5T4 antigen, and the negative control Raji cells, are plated at a density of 500,000 cells/well on non-tissue culture treated 96 well plates and kept on ice. Dilutions of the A1 and A1-IgG4 antibodies or A1-mcMMAF ADC are made in 3% bovine serum albumin BSA in Dulbecco's phosphate buffered saline (DPBS) and added to the plate at a final concentration of 10 μg/mL. The plates are then incubated on ice for 1 hour followed by 2 washes. The secondary antibody, PE (phycoerythrin) conjugated Goat Anti-Human IgG Fc is added to the wells. After 30 minutes of incubation at 4 C, the mean fluorescence intensity is then measured using a flow cytometer.
On the technique in general: A flow cytometer gives signals particle by particle.

The target of assay [16] is T4, Human 5T4 antigen on cells. As to the kind of experiment: flow cytometry, 10 ug/mL, PC3mm2 cells. The procedure: as §3
The target of assay [17] is T4, Human 5T4 antigen on cells. Kind of assay: flow cytometry, 10 ug/mL, MDAMB468 cells. The procedure:
as §3

Assay [18] concerns the target T4, Human 5T4 antigen on cells. As to the kind of experiment: flow cytometry, 10 ug/mL, A431 cells. The procedure: as §3

B1: A3 (a mouse/human chimeric antibody) (antibody, human IgG1, kappa, V domains shown)
VH: EVQLVESGGGLVQPKGSLKLSCAASGFTFNTYAMNWVRQAPGKGLEWVARIRSKSNNYATYYADSVKDRFTISRDDSQSMLYLQMNNLKTEDTAMYYCVRQWDYDVRAMNYWGQGTLVTVSS
VL: DIVMTQSHIFMSTSVGDRVSITCKASQDVDTAVAWYQQKPGQSPKLLIYWASTRLTGVPDRFTGSGSGTDFTLTISNVQSEDLADYFCQQYSSYPYTFGQGTKLEIKR
notes: also called Chimeric A3; muA3-huIgG1
Consider B1, for which the binding result in the assay with mouse 5T4 is “no binding”. For the same molecule, the Kd was determined as 0.17 nM in assay [1], 0.82 nM in assay [3], 0.41 nM in assay [4] and 0.12 nM in assay [5]. The koff is 3.06e-05 s⁻¹ in [1], 0.000162 s⁻¹ in assay [3], 0.000187 s⁻¹ in assay [4] and 4.17e-05 s⁻¹ in assay [5]. In addition, the kon in assay [1] was 179000 M⁻¹ s⁻¹; in assay [2], 198000 M⁻¹ s⁻¹; in assay [4] it was 458000 M⁻¹ s⁻¹; in assay [5], 351000 M⁻¹ s⁻¹.

B2: A1 (a humanized anti-5T4 IgG1 antibody) (antibody)
heavy: not shown
light: DIQMTQSPSSLSASVGDRVTITCKASQSVSNDVAWYQQKPGKAPKLLIYFATNRYTGVPSRFSGSGYGTDFTLTISSLQPEDFATYYCQQDYSSPWTFGQGTKVEIKRTVAAPSVFIFPPSDEQLKSGTASVVCLLNNFYPREAKVQWKVDNALQSGNSQESVTEQDSKDSTYSLSSTLTLSKADYEKHKVYACEVTHQGLSSPVTKSFNRGEC
notes: also called A1-IgG1; A1 antibody
For B2, the “fold better binding compared to A1-IgG4” value in [6] was found to be 1.2 fold; in [13], 1.7 fold. Moreover, the figures for the “fold higher affinity relative to A1-IgG4” value in assay [7] and in [14] were 1.2 fold and 1.5 fold, respectively. Besides, the binding result with mouse 5T4 is “no binding”. For the same molecule, the Kd in [8] was determined as 1.8 nM; in assay [1], 0.48 nM; in [9] it was 2.76 nM; in assay [10] it was 1.06 nM; in assay [11] it was 1.8 nM; in [12], 0.48 nM. The Kd in [4] is 2.76 nM; in assay [5], 1.06 nM. The dissociation rate constant (koff) was found to be 0.000273 s⁻¹ in [8]; 0.000132 s⁻¹ in assay [1]; 0.000641 s⁻¹ in [9]; 0.000459 s⁻¹ in assay [10]; 0.000273 s⁻¹ in assay [11]; 0.000132 s⁻¹ in assay [12]. The values for the koff in assay [4] and in assay [5] were 0.000641 s⁻¹ and 0.000459 s⁻¹, respectively. Besides, the kon amounted to 151000 M⁻¹ s⁻¹ in [8]; 275000 M⁻¹ s⁻¹ in [1]; 233000 M⁻¹ s⁻¹ in assay [9]; 431000 M⁻¹ s⁻¹ in assay [10]; 151000 M⁻¹ s⁻¹ in assay [11]; 275000 M⁻¹ s⁻¹ in [12]. In addition, the kon in assay [4] was 233000 M⁻¹ s⁻¹; in assay [5], 431000 M⁻¹ s⁻¹. The “Mean Fluorescent Intensity” value in assay [15] came out at 7000; in assay [16] it was 3400; in assay [17] it was 3500; in [18] it was 3900.

B3: A1-IgG4 (a humanized anti-5T4 IgG4 antibody) (antibody)
heavy: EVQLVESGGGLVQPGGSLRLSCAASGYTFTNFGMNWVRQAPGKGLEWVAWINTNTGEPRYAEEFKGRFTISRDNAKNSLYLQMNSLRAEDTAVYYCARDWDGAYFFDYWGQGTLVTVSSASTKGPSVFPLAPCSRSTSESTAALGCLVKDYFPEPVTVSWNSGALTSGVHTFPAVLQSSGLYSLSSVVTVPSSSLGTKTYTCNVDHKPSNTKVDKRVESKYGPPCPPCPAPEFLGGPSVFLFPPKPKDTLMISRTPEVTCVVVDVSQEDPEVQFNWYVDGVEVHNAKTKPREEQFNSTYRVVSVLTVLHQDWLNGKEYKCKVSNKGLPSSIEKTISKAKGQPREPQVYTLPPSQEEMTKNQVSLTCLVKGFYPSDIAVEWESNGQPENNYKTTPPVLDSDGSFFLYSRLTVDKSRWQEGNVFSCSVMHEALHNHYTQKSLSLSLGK
light: DIQMTQSPSSLSASVGDRVTITCKASQSVSNDVAWYQQKPGKAPKLLIYFATNRYTGVPSRFSGSGYGTDFTLTISSLQPEDFATYYCQQDYSSPWTFGQGTKVEIKRTVAAPSVFIFPPSDEQLKSGTASVVCLLNNFYPREAKVQWKVDNALQSGNSQESVTEQDSKDSTYSLSSTLTLSKADYEKHKVYACEVTHQGLSSPVTKSFNRGEC
notes: Same variable domains as A1, human IgG4m heavy chain; also called A1-IgG4 Ab; Humanized A1 human IgG4m
Turning to B3, the Kd in [9] was 4.7 nM; in assay [10] it was 1.43 nM; in assay [11], 2.11 nM; in [12] it was 0.52 nM. In addition, the koff in assay [9] amounted to 0.00095 s⁻¹; in assay [10] it was 0.000893 s⁻¹; in [11] it was 0.000382 s⁻¹; in assay [12] it was 0.000172 s⁻¹. Moreover, the kon in assay [9] came out at 202000 M⁻¹ s⁻¹; in [10] it was 626000 M⁻¹ s⁻¹; in assay [11] it was 181000 M⁻¹ s⁻¹; in assay [12], 328000 M⁻¹ s⁻¹. The “Mean Fluorescent Intensity” value came out at 5500 in assay [15], 2100 in assay [16], 2500 in assay [17] and 2400 in assay [18].
